What was measured:
[1] = target: native MSP-3 antigen of Plasmodium falciparum clone 3D7 schizonts and merozoites (Plasmodium falciparum); test: indirect immunofluorescence on 3D7 mature schizont infected RBCs; antibody at 3 µg/ml in ADCI
[2] = target: native MSP-3 antigen of Plasmodium falciparum clone 3D7 schizonts and merozoites (Plasmodium falciparum); test: indirect immunofluorescence on 3D7 mature schizont infected RBCs; antibody at 15 µg/ml in ADCI
[3] = target: native MSP-3 antigen of Plasmodium falciparum clone 3D7 schizonts and merozoites (Plasmodium falciparum); test: cell-based or functional assay

B1: RAM1 IgG3 (antibody, V domains shown)
VH: QVQLVQSGGGVVQPGRSLRLSCAASGFTFSSYAMHWVRQAPGKGLEWVAVISYDGSNKYYADSVKGRFTISRDNSKNTLYLQMSSLRAEDTAVYYCVKGASSWSTGTLVTVSS
VL: DIVMMQSPATLSASVGDRVTITCRASQSISSWLAWYQQKPGKAPNLLIYKASSLESGVPSRFSGSGSGTEFTLTISSLQPDDFATYYCQQYKSFPYTFGQGTRLEIKR
For B1, the IFAT in ADCI (endpoint titre of indirect immunofluorescence) [1] was 10 titre, the IFAT in ADCI (endpoint titre of indirect immunofluorescence) [2] was 50 titre and the SGI % (specific growth inhibitory index, ADCI with monocytes, 3 µg/ml) [3] was 23%. The SGI % (specific growth inhibitory index, ADCI with monocytes, 15 µg/ml) [3] was 49%.

— patent US7811569
